Laboratory results from patent US20090202506A1 (ORTHO MCNEIL PHARMACEUTICAL, published 2009).
Values belong to the binder of their own block, whether it stands above or below them.

How the values were obtained:
D^b MHC class I molecule [1] = biological target: T1, D^b MHC class I molecule (;mouse, UniProt P01887 21-119; P01899 25-309, limits assumed); assay: MHC class I stabilization assay, flow cytometry on RMAS cells
T1 construct: Empty class I molecule on the surface of RMAS cells; also called D^b class I molecules
T1 sequence (MHC heavy, looked up): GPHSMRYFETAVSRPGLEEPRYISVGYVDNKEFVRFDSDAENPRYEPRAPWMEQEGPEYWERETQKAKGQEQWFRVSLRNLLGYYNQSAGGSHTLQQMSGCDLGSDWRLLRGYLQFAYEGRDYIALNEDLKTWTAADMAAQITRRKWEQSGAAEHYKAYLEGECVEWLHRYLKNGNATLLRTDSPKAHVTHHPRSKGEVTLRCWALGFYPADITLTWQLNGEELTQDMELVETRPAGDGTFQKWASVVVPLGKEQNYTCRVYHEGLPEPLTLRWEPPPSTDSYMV
T1 sequence (b2m, looked up): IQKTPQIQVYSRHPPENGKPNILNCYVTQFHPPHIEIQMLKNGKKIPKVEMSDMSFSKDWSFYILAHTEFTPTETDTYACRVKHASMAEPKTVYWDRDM
Procedure: (§1) The binding capacity of these synthetic peptides to L^d and D^b class I molecules were tested in an MHC class I stabilization assay (Cai et al. (1996) supra). Antigen-transporting deficient (TAP) RMAS cells (H-2^b) or L^d transfected RMAS (RMAS-L^d) cells were cultured in the presence of a titrated concentration of peptides at 27° C. After overnight culturing at 27° C., these cells were further cultured for two hours at 37° C. and the surface expression of L^d or D^b on the cells were analyzed by flow cytometry. […] Of the five peptides predicted bind to D^b, only IgE44 binds Db strongly and two peptides, IgE16 and IgE125, bind D^b weakly. […] Thus, a total of six peptides were identified that bind to either L^d or D^b MHC class I molecules.

L^d MHC class I molecule [2] = biological target: T2, L^d MHC class I molecule (;mouse, UniProt P01887 21-119; P01897 25-362, limits assumed); assay: MHC class I stabilization assay, flow cytometry of surface L^d on RMAS-L^d cells with titrated peptide
T2 construct: Empty class I molecule on the surface of RMAS-L^d cells; also called L^d class I molecules
T2 sequence (MHC heavy, looked up): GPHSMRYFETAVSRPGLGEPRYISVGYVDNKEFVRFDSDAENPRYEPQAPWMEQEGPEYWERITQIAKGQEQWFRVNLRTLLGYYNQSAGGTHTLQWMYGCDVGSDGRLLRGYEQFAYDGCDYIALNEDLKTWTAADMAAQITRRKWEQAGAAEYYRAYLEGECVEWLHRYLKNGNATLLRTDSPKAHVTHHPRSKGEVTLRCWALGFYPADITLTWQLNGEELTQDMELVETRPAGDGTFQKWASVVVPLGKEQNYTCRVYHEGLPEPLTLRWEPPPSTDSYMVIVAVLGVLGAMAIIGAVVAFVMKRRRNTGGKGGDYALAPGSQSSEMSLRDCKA
T2 sequence (b2m, looked up): T1 sequence (b2m, looked up)
Procedure: as §1

L^d MHC class I molecule [3] = biological target: T2, L^d MHC class I molecule; assay: MHC class I stabilization assay, flow cytometry on RMAS-L^d cells
Procedure: as §1

D^b MHC class I molecule [4] = biological target: T1, D^b MHC class I molecule; assay: MHC class I stabilization assay, flow cytometry of surface D^b on RMAS cells with titrated peptide
Procedure: as §1

Binder: GHILNDVSV [IgE 125]
binding result (D^b MHC class I molecule [1]): binds

Binder: TASMTLGCL [IgE 16]
binding result (D^b MHC class I molecule [1]): binds

Binder: KSNGSNQGF [IgE 363]
binding result (L^d MHC class I molecule [2]): no binding

Binder: MSTVNFPAL (also called MSTVNFPAL) [IgE 44]
ratio of fluorescence intensity (with peptide - without peptide)/without peptide (D^b MHC class I molecule [1]): > 2 fold

Binder: HSTIQLYCF [IgE 114]
binding result (L^d MHC class I molecule [3]): binds

Binder: GSNQGFFIF [IgE 366]
binding result (L^d MHC class I molecule [3]): binds
binding result (D^b MHC class I molecule [1]): binds

Binder: KPCKGTASM [IgE 11]
ratio of fluorescence intensity (with peptide - without peptide)/without peptide (L^d MHC class I molecule [3]): > 2 fold

Other lines, results leading:

binding result (L^d MHC class I molecule [2]): no binding
Binder: HSSCDPNAF [IgE 105]

binding result (L^d MHC class I molecule [2]): no binding
Binder: RSAPEVYVF [IgE 307]

binding result (D^b MHC class I molecule [4]): no binding
Binder: ASTCSKLNI [IgE 159]

binding result (L^d MHC class I molecule [2]): no binding
Binder: FPNPVTVTW [IgE 29]

binding result (L^d MHC class I molecule [2]): no binding
Binder: IPPSPLDLY [IgE 209]

binding result (D^b MHC class I molecule [4]): no binding
Binder: TSLGNTSLR [IgE 411]
